Measured values as given in paper PMC3875777, “Aberrantly hypermethylated Homeobox A2 derepresses metalloproteinase-9 through TBP and promotes invasion in Nasopharyngeal carcinoma”.

Legend:
recombinant His-HOXA2 = recombinant His-HOXA2 (UniProt O43364 1-376); assay: EMSA; supershifted by antibody; Pull-down: 100-250 pmole probe on M-280 streptavidin Dynabeads, 100-250 ug nuclear extract, 2.5 ug salmon sperm DNA, 1 h room temperature, washes with 0.5% NP-40; EMSA: LightShift kit, 20 fmol probe, 37 C 20 min, 6% gel in 1X TBE; salt and pH not given; conditions: protein: recombinant; tags: His; label: 5'-biotin; blunt
recombinant His-TBP = recombinant His-TBP (UniProt P20226 1-339); assay: as above; conditions: protein: recombinant; tags: His; label: 5'-biotin; blunt
Chain of recombinant His-TBP (P20226 whole entry): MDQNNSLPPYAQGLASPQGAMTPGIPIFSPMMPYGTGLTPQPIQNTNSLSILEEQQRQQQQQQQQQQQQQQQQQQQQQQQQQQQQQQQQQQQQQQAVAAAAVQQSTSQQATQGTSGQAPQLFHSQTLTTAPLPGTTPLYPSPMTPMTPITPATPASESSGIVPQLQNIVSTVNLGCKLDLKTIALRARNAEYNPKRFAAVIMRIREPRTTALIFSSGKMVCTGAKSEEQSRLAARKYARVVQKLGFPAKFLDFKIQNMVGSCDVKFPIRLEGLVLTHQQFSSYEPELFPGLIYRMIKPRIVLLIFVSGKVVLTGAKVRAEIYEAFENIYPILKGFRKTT

Chain of recombinant His-HOXA2 (O43364 whole entry): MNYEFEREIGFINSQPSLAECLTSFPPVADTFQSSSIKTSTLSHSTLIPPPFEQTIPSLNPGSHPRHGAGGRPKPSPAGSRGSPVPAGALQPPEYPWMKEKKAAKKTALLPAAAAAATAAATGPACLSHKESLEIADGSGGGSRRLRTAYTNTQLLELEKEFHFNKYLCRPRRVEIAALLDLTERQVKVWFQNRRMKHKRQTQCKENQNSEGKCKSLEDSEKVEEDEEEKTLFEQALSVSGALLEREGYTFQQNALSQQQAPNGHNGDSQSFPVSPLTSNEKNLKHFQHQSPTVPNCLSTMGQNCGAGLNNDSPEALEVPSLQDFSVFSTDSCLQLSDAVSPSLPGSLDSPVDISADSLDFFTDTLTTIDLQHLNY

B1: MMP9 TATA WT (dsDNA)
DNA 1: GAGCGCCTCCTTAAAGCCCCCACAA
DNA 2: TTGTGGGGGCTTTAAGGAGGCGCTC
Question: Which results are given for B1?
Answer: binding result (recombinant His-HOXA2): binds; binding result (recombinant His-TBP): binds
